The source of these data is publication PMC6624275.

This experiment has as its target Hen egg-white lysozyme (Hewl) (hen) (UniProt P00698).

Chain of Hen egg-white lysozyme (Hewl) (hen) (P00698 19-147): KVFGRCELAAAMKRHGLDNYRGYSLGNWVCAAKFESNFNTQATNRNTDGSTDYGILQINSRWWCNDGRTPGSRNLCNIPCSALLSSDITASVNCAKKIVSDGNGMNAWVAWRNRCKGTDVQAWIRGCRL

Turning to “recombinant Dichelobacter nodosus Adhesin Complex Protein (rDn-ACP) (from UniProt A5EV15 1-230) (natural protein)”, the reduction of Hewl (10 U/well)-mediated lysis of M. lysodeikticus cells (OD at 595 nm, 25 °C), rDn-ACP 3-90 pmol/well, read at 2 h and 24 h amounted to 100%.
“recombinant Neisseria meningitidis Adhesin Complex Protein (rNm-ACP) (natural protein)” showed a reduction of Hewl (10 U/well)-mediated lysis of M. lysodeikticus cells (OD at 595 nm, 25 °C), rNm-ACP 6-180 pmol/well, read at 2 h and 24 h of 80%.
